Measured values: the supplement of paper PMC5998384

Legend:
HeLa Kyoto [1] = experiment: solubility in G1/S (NP-40 vs SDS abundance) (log2 ratio); higher = more soluble; details: cell cycle stage: G1/S
HeLa Kyoto [2] = experiment: solubility change mitosis vs G1/S (difference of NP-40 vs SDS log2 ratios) (log2 ratio difference); higher = more soluble in mitosis
HeLa Kyoto [3] = experiment: thermal stability score vs G1/S (z-score of summed log2 fold changes over temperatures); higher = more thermally stable than in G1/S
[4] = cell cycle stage: early G1 (4.5 h after nocodazole release)
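For solubility change mitosis vs G1/S (difference of NP-40 vs SDS log2 ratios) in this document: synchronized HeLa Kyoto cells (double thymidine block for G1/S, nocodazole release for mitosis), protein amounts in NP-40 versus SDS lysates quantified by mass spectrometry, three biological replicates.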
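For solubility in G1/S (NP-40 vs SDS abundance) in this document: HeLa Kyoto cells arrested at G1/S by double thymidine block, proteins quantified by TMT10plex mass spectrometry in mild NP-40 versus SDS extracts, three biological replicates.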
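For thermal stability score vs G1/S (z-score of summed log2 fold changes over temperatures) in this document: synchronized HeLa Kyoto cells, proteins quantified by TMT10plex mass spectrometry, three biological replicates, mitosis taken 0.5 h after nocodazole release, G1/S directly after double thymidine block.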

Sequence	solubility in G1/S (log2) (HeLa Kyoto [1])	solubility change mitosis (log2) (HeLa Kyoto [2])	thermal stability score (HeLa Kyoto [3]; [4])	thermal stability score (HeLa Kyoto [3]; cell cycle stage: mitosis)
MPGPQGGRGAATMSLGKLSPVGWVSSSQGKRRLTADMISHPLGDFRHTMHVGRGGDVFGDTSFLSNHGGSSGSTHRSPRSFLAKKLQLVRRVGAPPRRMASPPAPSPAPPAISPIIKNAISLPQLNQAAYDSLVVGKLSFDSSPTSSTDGHSSYGLDSGFCTISRLPRSEKPHDRDRDGSFPSEPGLRRSDSLLSFRLDLDLGPSLLSELLGVMSLPEAPAAETPAPAANPPAPTANPTGPAANPPATTANPPAPAANPSAPAATPTGPAANPPAPAASSTPHGHCPNGVTAGLGPVAEVKSSPVGGGPRGPAGPALGRHWGAGWDGGHHYPEMDARQERVEVLPQARASWESLDEEWRAPQAGSRTPVPSTVQANTFEFADAEEDDEVKV [CDC42EP1]	0.536	0.0734	-0.817	-1.35
MDTTAAAALPAFVALLLLSPWPLLGSAQGQFSAGGCTFDDGPGACDYHQDLYDDFEWVHVSAQEPHYLPPEMPQGSYMIVDSSDHDPGEKARLQLPTMKENDTHCIDFSYLLYSQKGLNPGTLNILVRVNKGPLANPIWNVTGFTGRDWLRAELAVSTFWPNEYQVIFEAEVSGGRSGYIAIDDIQVLSYPCDKSPHFLRLGDVEVNAGQNATFQCIATGRDAVHNKLWLQRRNGEDIPVAQTKNINHRRFAASFRLQEVTKTDQDLYRCVTQSERGSGVSNFAQLIVREPPRPIAPPQLLGVGPTYLLIQLNANSIIGDGPIILKEVEYRMTSGSWTETHAVNAPTYKLWHLDPDTEYEIRVLLTRPGEGGTGLPGPPLITRTKCAEPMRTPKTLKIAEIQARRIAVDWESLGYNITRCHTFNVTICYHYFRGHNESKADCLDMDPKAPQHVVNHLPPYTNVSLKMILTNPEGRKESEETIIQTDEDVPGPVPVKSLQGTSFENKIFLNWKEPLDPNGIITQYEISYSSIRSFDPAVPVAGPPQTVSNLWNSTHHVFMHLHPGTTYQFFIRASTVKGFGPATAINVTTNISAPTLPDYEGVDASLNETATTITVLLRPAQAKGAPISAYQIVVEELHPHRTKREAGAMECYQVPVTYQNAMSGGAPYYFAAELPPGNLPEPAPFTVGDNRTYQGFWNPPLAPRKGYNIYFQAMSSVEKETKTQCVRIATKAATEEPEVIPDPAKQTDRVVKIAGISAGILVFILLLLVVILIVKKSKLAKKRKDAMGNTRQEMTHMVNAMDRSYADQSTLHAEDPLSITFMDQHNFSPRYENHSATAESSRLLDVPRYLCEGTESPYQTGQLHPAIRVADLLQHINLMKTSDSYGFKEEYESFFEGQSASWDVAKKDQNRAKNRYGNIIAYDHSRVILQPVEDDPSSDYINANYIDGYQRPSHYIATQGPVHETVYDFWRMIWQEQSACIVMVTNLVEVGRVKCYKYWPDDTEVYGDFKVTCVEMEPLAEYVVRTFTLERRGYNEIREVKQFHFTGWPDHGVPYHATGLLSFIRRVKLSNPPSAGPIVVHCSAGAGRTGCYIVIDIMLDMAEREGVVDIYNCVKALRSRRINMVQTEEQYIFIHDAILEACLCGETAIPVCEFKAAYFDMIRIDSQTNSSHLKDEFQTLNSVTPRLQAEDCSIACLPRNHDKNRFMDMLPPDRCLPFLITIDGESSNYINAALMDSYRQPAAFIVTQYPLPNTVKDFWRLVYDYGCTSIVMLNEVDLSQGCPQYWPEEGMLRYGPIQVECMSCSMDCDVINRIFRICNLTRPQEGYLMVQQFQYLGWASHREVPGSKRSFLKLILQVEKWQEECEEGEGRTIIHCLNGGGRSGMFCAIGIVVEMVKRQNVVDVFHAVKTLRNSKPNMVEAPEQYRFCYDVALEYLESS [PTPRK]	0.0167	-0.0752	1.97	1.47
MDGLRQRVEHFLEQRNLVTEVLGALEAKTGVEKRYLAAGAVTLLSLYLLFGYGASLLCNLIGFVYPAYASIKAIESPSKDDDTVWLTYWVVYALFGLAEFFSDLLLSWFPFYYVGKCAFLLFCMAPRPWNGALMLYQRVVRPLFLRHHGAVDRIMNDLSGRALDAAAGITRNVLQVLARSRAGITPVAVAGPSTPLEADLKPSQTPQPKDK [REEP6]	-0.206	-0.143	0.664	-0.943
MLKKQSAGLVLWGAILFVAWNALLLLFFWTRPAPGRPPSVSALDGDPASLTREVIRLAQDAEVELERQRGLLQQIGDALSSQRGRVPTAAPPAQPRVPVTPAPAVIPILVIACDRSTVRRCLDKLLHYRPSAELFPIIVSQDCGHEETAQAIASYGSAVTHIRQPDLSSIAVPPDHRKFQGYYKIARHYRWALGQVFRQFRFPAAVVVEDDLEVAPDFFEYFRATYPLLKADPSLWCVSAWNDNGKEQMVDASRPELLYRTDFFPGLGWLLLAELWAELEPKWPKAFWDDWMRRPEQRQGRACIRPEISRTMTFGRKGVSHGQFFDQHLKFIKLNQQFVHFTQLDLSYLQREAYDRDFLARVYGAPQLQVEKVRTNDRKELGEVRVQYTGRDSFKAFAKALGVMDDLKSGVPRAGYRGIVTFQFRGRRVHLAPPLTWEGYDPSWN [MGAT1]	-0.0579	0.0597	0.289	0.0296
MAPARLFALLLFFVGGVAESIRETEVIDPQDLLEGRYFSGALPDDEDVVGPGQESDDFELSGSGDLDDLEDSMIGPEVVHPLVPLDNHIPERAGSGSQVPTEPKKLEENEVIPKRISPVEESEDVSNKVSMSSTVQGSNIFERTEVLAALIVGGIVGILFAVFLILLLMYRMKKKDEGSYDLGKKPIYKKAPTNEFYA [SDC4]	-0.523	0.235	2.66	4.92
MDLDVVNMFVIAGGTLAIPILAFVASFLLWPSALIRIYYWYWRRTLGMQVRYVHHEDYQFCYSFRGRPGHKPSILMLHGFSAHKDMWLSVVKFLPKNLHLVCVDMPGHEGTTRSSLDDLSIDGQVKRIHQFVECLKLNKKPFHLVGTSMGGQVAGVYAAYYPSDVSSLCLVCPAGLQYSTDNQFVQRLKELQGSAAVEKIPLIPSTPEEMSEMLQLCSYVRFKVPQQILQGLVDVRIPHNNFYRKLFLEIVSEKSRYSLHQNMDKIKVPTQIIWGKQDQVLDVSGADMLAKSIANCQVELLENCGHSVVMERPRKTAKLIIDFLASVHNTDNNKKLD [ABHD6]	-0.209	-0.0832	0.51	-0.118
MAAAAPAAAAASSEAPAASATAEPEAGDQDSREVRVLQSLRGKICEAKNLLPYLGPHKMRDCFCTINLDQEEVYRTQVVEKSLSPFFSEEFYFEIPRTFQYLSFYVYDKNVLQRDLRIGKVAIKKEDLCNHSGKETWFSLQPVDSNSEVQGKVHLELKLNELITENGTVCQQLVVHIKACHGLPLINGQSCDPYATVSLVGPSRNDQKKTKVKKKTSNPQFNEIFYFEVTRSSSYTRKSQFQVEEEDIEKLEIRIDLWNNGNLVQDVFLGEIKVPVNVLRTDSSHQAWYLLQPRDNGNKSSKTDDLGSLRLNICYTEDYVLPSEYYGPLKTLLLKSPDVQPISASAAYILSEICRDKNDAVLPLVRLLLHHDKLVPFATAVAELDLKDTQDANTIFRGNSLATRCLDEMMKIVGGHYLKVTLKPILDEICDSSKSCEIDPIKLKEGDNVENNKENLRYYVDKLFNTIVKSSMSCPTVMCDIFYSLRQMATQRFPNDPHVQYSAVSSFVFLRFFAVAVVSPHTFHLRPHHPDAQTIRTLTLISKTIQTLGSWGSLSKSKSSFKETFMCEFFKMFQEEGYIIAVKKFLDEISSTETKESSGTSEPVHLKEGEMYKRAQGRTRIGKKNFKKRWFCLTSRELTYHKQPGSKDAIYTIPVKNILAVEKLEESSFNKKNMFQVIHTEKPLYVQANNCVEANEWIDVLCRVSRCNQNRLSFYHPSVYLNGNWLCCQETGENTLGCKPCTAGVPADIQIDIDEDRETERIYSLFTLSLLKLQKMEEACGTIAVYQGPQKEPDDYSNFVIEDSVTTFKTIQQIKSIIEKLDEPHEKYRKKRSSSAKYGSKENPIVGKAS [RASA2]	-0.1	-0.128	0.349	0.0928
